Results taken from doi:10.1101/2022.07.12.499507 (bioRxiv, 2022).

T1: Eaf1 (Saccharomyces cerevisiae, UniProt Q06337 1-982)
T1 sequence: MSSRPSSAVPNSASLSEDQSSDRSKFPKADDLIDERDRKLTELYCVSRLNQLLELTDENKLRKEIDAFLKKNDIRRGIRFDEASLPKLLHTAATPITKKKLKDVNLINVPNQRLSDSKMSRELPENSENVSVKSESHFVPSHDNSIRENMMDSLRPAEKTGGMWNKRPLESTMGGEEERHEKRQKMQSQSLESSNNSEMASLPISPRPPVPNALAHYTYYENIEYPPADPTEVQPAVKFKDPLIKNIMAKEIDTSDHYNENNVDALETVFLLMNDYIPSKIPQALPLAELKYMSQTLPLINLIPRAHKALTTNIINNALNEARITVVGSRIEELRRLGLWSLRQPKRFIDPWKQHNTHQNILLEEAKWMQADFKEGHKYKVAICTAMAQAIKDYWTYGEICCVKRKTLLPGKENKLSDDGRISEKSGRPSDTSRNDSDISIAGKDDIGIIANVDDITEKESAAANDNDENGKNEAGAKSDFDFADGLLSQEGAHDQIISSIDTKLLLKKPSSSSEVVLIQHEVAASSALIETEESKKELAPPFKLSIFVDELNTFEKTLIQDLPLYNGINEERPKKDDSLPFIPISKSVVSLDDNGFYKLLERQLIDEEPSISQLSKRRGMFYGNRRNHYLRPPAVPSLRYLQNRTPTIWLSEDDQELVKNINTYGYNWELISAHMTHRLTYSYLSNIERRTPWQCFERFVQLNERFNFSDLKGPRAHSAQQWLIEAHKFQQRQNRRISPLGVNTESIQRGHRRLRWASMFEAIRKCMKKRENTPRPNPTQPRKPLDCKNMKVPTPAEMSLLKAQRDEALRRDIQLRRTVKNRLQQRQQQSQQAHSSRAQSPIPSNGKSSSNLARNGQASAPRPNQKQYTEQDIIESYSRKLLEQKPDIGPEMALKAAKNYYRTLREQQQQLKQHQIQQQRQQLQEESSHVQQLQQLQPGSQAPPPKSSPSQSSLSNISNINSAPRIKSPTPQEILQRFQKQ

T2: Yng2 (Saccharomyces cerevisiae, UniProt P38806 1-282)
T2 sequence: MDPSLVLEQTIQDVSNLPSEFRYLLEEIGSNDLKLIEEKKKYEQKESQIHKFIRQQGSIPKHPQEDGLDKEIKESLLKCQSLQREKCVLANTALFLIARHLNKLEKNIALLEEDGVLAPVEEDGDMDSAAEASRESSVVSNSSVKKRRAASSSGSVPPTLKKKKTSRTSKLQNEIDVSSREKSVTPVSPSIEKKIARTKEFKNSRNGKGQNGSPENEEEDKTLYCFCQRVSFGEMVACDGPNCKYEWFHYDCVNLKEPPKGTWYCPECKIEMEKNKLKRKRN

B1: Epl1 (natural protein)
chain: MPTPSNAIEINDGSHKSGRSTRRSGSRSAHDDGLDSFSKGDSGAGASAGSSNSRFRHRKISVKQHLKIYLPNDLKHLDKDELQQREVVEIETGVEKNEEKEVHLHRILQMGSGHTKHKDYIPTPDASMTWNEYDKFYTGSFQETTSYIKFSATVEDCCGTNYNMDERDETFLNEQVNKGSSDILTEDEFEILCSSFEHAIHERQPFLSMDPESILSFEELKPTLIKSDMADFNLRNQLNHEINSHKTHFITQFDPVSQMNTRPLIQLIEKFGSKIYDYWRERKIEVNGYEIFPQLKFERPGEKEEIDPYVCFRRREVRHPRKTRRIDILNSQRLRALHQELKNAKDLALLVAKRENVSLNWINDELKIFDQRVKIKNLKRSLNISGEDDDLINHKRKRPTIVTVEQREAELRKAELKRAAAAAAAAKAKNNKRNNQLEDKSSRLTKQQQQQLLQQQQQQQQNALKTENGKQLANASSSSTSQPITSHVYVKLPSSKIPDIVLEDVDALLNSKEKNARKFVQEKMEKRKIEDADVFFNLTDDPFNPVFDMSLPKNFSTSNVPFASIASSKFQIDRSFYSSHLPEYLKGISDDIRIYDSNGRSRNKDNYNLDTKRIKKTELYDPFQENLEIHSREYPIKFRKRVGRSNIKYVDRMPNFTTSSTKSACSLMDFVDFDSIEKEQYSREGSNDTDSINVYDSKYDEFVRLYDKWKYDSPQNEYGIKFSDEPARLNQISNDTQVIRFGTMLGTKSYEQLREATIKYRRDYITRLKQKHIQHLQQQQQQQQQQQQQAQQQKQKSQNNNSNSSNSLKKLNDSLINSEAKQNSSITQKNSS
B2: Yaf9 (natural protein)
chain: MAPTISKRIKTLSVSRPIIYGNTAKKMGSVKPPNAPAEHTHLWTIFVRGPQNEDISYFIKKVVFKLHDTYPNPVRSIEAPPFELTETGWGEFDINIKVYFVEEANEKVLNFYHRLRLHPYANPVPNSDNGNEQNTTDHNSKDAEVSSVYFDEIVFNEPNEEFFKILMSRPGNLLPSNKTDDCVYSKQLEQEEIDRIEIGIEKVDKEIDELKQKLENLVKQEAINGS
B3: Eaf2 (natural protein)
chain: MSSSDIFDVLNIKQKSRSPTNGQVSVPSSSAANRPKPQVTGMQRELFNLLGENQPPVVIKSGNNFKEKMLSTSKPSPWSFVEFKANNSVTLRHWVKGSKELIGDTPKESPYSKFNQHLSIPSFTKEEYEAFMNENEGTQKSVESEKNHNENFTNEKKDESKNSWSFEEIEYLFNLCKKYDLRWFLIFDRYSYNNSRTLEDLKEKFYYTCRNYFKASDPSNPLLSSLNFSAEKEIERKKYLQRLLSRSAAEIAEEEALVVESKKFEMAAKRTLAERESLLRLLDSPHSDQTITQYLTSQGMSQLYNALLADKTRKRKHDLNIPENPWMKQQQQFAQHRQLQQLNVKKSEVKENLSPKKTKRQRQEMQTALKRKSESAYAEQLLKDFNSDERKALGVITHGEKLSPGVYLRSTKLSTFKPALQNKILAILQELSLPSRPVMPSFDVMERQEELLKKINTLIDLKKHVDKYEAGMSITK
B4: Eaf3 (natural protein)
chain: MVDLEQEFALGGRCLAFHGPLMYEAKILKIWDPSSKMYTSIPNDKPGGSSQATKEIKPQKLGEDESIPEEIINGKCFFIHYQGWKSSWDEWVGYDRIRAYNEENIAMKKRLANEAKEAKKSLLEQQKKKKLSTSLGGPSNGGKRKGDSRSNASISKSTSQSFLTSSVSGRKSGRSSANSLHPGSSLRSSSDQNGNDDRRRSSSLSPNMLHHIAGYPTPKISLQIPIKLKSVLVDDWEYVTKDKKICRLPADVTVEMVLNKYEHEVSQELESPGSQSQLSEYCAGLKLYFDKCLGNMLLYRLERLQYDELLKKSSKDQKPLVPIRIYGAIHLLRLISVLPELISSTTMDLQSCQLLIKQTEDFLVWLLMHVDEYFNDKDPNRSDDALYVNTSSQYEGVALGM
B5: Eaf6 (natural protein)
chain: MTDELKSYEALKAELKKSLQDRREQEDTFDNLQQEIYDKETEYFSHNSNNNHSGHGGAHGSKSHYSGNIIKGFDTFSKSHHSHADSAFNNNDRIFSLSSATYVKQQHGQSQND

Legend:
Eaf1 = target: T1, Eaf1; test: cryo-EM structure
Eaf2 = target: B3; test: cross-linking
Epl1 [1] = target: B1; test: cross-linking
Epl1 [2] = target: B1; test: cryo-EM structure
Yng2 = target: T2, Yng2; test: cryo-EM structure

Binder: B1
binding result (Eaf1): binds

Binder: B2
binding result (Eaf2): binds

Binder: B3
binding result (Eaf1): binds

Binder: B4
binding result (Epl1 [1]): binds

Binder: B5
binding result (Epl1 [2]): binds
binding result (Yng2): binds
